Assay results from US20140377806A1.

Key:
[1] = biological target: human CXCR3 (full length, splice variant A) expressed on transfected cells (human) (UniProt P49682)
[2] = biological target: human CXCR3 (full length, splice variant A) expressed on transfected cells (human) (UniProt P49682); remark: listed apart in the source
[3] = biological target: human CXCR3 (full length, splice variant A) expressed on transfected cells (human) (UniProt P49682); assay: cell-based or functional assay
[4] = biological target: Full-length human CXCR3 receptor protein with C-terminal 6xHis and HPC4 tag (human) (UniProt P49682); assay: SPR (Biacore whole receptor assay), receptor on NTA chip, 1:1 fit

Row | Substance | IC50 (read off the curve), inhibition of CXCL10-induced calcium mobilization [all five panels] [1] | IC50, inhibition of CXCL11-induced calcium mobilization in hCXCR3 HEK cells (FLIPR); bar labelled '+ CTRL' (panels A to C of the same sheet print '1C6 (+ CTRL)') [2] | IC50 (M), calcium mobilization to CXCL10 in human CXCR3-Gqi4qi4 CHO cells [3] | Kd [4] | koff [4] | kon [4] | IC50, inhibition of CXCL11-induced calcium mobilization in hCXCR3 HEK cells (FLIPR); isotype control [2]
1 | CTRL IgG1 (antibody) | – | – | – | – | – | – | 27.6 µg/mL
2 | human CXCL10 (from UniProt P02778 22-98) (ligand) | – | – | – | 9.76 nM | 0.00127 s⁻¹ | 136000 M⁻¹ s⁻¹ | –
3 | human CXCL11 (from UniProt O14625 22-94) (ligand) | – | – | – | 1.72 nM | 0.00441 s⁻¹ | 2.58e+06 M⁻¹ s⁻¹ | –

Continued by falling Kd [4], values first:

Row | IC50 (read off the curve), inhibition of CXCL10-induced calcium mobilization [all five panels] [1] | IC50, inhibition of CXCL11-induced calcium mobilization in hCXCR3 HEK cells (FLIPR); bar labelled '+ CTRL' (panels A to C of the same sheet print '1C6 (+ CTRL)') [2] | IC50 (M), calcium mobilization to CXCL10 in human CXCR3-Gqi4qi4 CHO cells [3] | Kd [4] | koff [4] | kon [4] | IC50, inhibition of CXCL11-induced calcium mobilization in hCXCR3 HEK cells (FLIPR); isotype control [2] | Substance
4 | 3 µg/mL | 0.12 µg/mL | 3.14e-06 M | 3.51 nM | 0.000142 s⁻¹ | 41100 M⁻¹ s⁻¹ | – | Anti-hCXCR3 mAb clone 1C6 (Becton, Dickinson catalog #557183) (antibody)
5 | – | – | – | 1.17 nM | 0.00426 s⁻¹ | 3.69e+06 M⁻¹ s⁻¹ | – | mouse CXCL11 (from UniProt Q9JHH5 22-100) (ligand)
